System: Escherichia coli TOP10
Test: shrunken log2 fold change of peptide-encoding DNA abundance (4.5 h post-induction vs induction); higher = less antimicrobial activity (less host growth inhibition)
Settings: time post-induction: 4.5 h; library: site-saturation at positions 5, 18, 19, 20
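Note: peptides expressed intracellularly from a pBAD plasmid library in pooled LB shake-flask culture, induced with 0.3% L-arabinose, DNA abundance read by NGS, three biological replicates, DESeq2 with apeglm shrinkage.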

| Sequence | shrunken log2 fold change |
| --- | --- |
| RRIRKRPPRLPRPRPRPEFSPRP | 0.397 |
| RRIRKRPPRLPRPRPRPNTIPRP | 0.0945 |
| RRIRGRPPRLPRPRPRPSGNPRP | 0.18 |
| RRIRHRPPRLPRPRPRPCGAPRP | 0.0817 |
| RRIRCRPPRLPRPRPRPYCNPRP | -1.19 |
| RRIRDRPPRLPRPRPRPTKDPRP | 0.0518 |
| RRIRCRPPRLPRPRPRPTLPPRP | 0.356 |
| RRIRNRPPRLPRPRPRPRLVPRP | 0.114 |
| RRIRGRPPRLPRPRPRPMTVPRP | 0.0506 |
| RRIRDRPPRLPRPRPRPAGAPRP | 0.509 |
| RRIRTRPPRLPRPRPRPHYQPRP | -0.782 |
| RRIRRRPPRLPRPRPRPAYCPRP | 0.0506 |
| RRIRGRPPRLPRPRPRPEEQPRP | -0.00213 |
| RRIRQRPPRLPRPRPRPQCVPRP | -0.0168 |
| RRIRMRPPRLPRPRPRPMGSPRP | -0.0199 |
| RRIRWRPPRLPRPRPRPCGSPRP | -0.0157 |
| RRIRFRPPRLPRPRPRPISVPRP | 0.0197 |
| RRIRQRPPRLPRPRPRPAKEPRP | -0.0803 |
| RRIRFRPPRLPRPRPRPYQIPRP | -0.471 |
| RRIRMRPPRLPRPRPRPRMLPRP | 0.465 |
| RRIRVRPPRLPRPRPRPDWCPRP | 0.0302 |
| RRIRPRPPRLPRPRPRPPYRPRP | 0.103 |
| RRIRMRPPRLPRPRPRPEDAPRP | 3.45 |
| RRIRNRPPRLPRPRPRPHRSPRP | 0.283 |
| RRIRWRPPRLPRPRPRPPFVPRP | 0.171 |

| Sequence | shrunken log2 fold change |
| --- | --- |
| RRIRIRPPRLPRPRPRPLFKPRP | -0.773 |
| RRIRGRPPRLPRPRPRPQDDPRP | 0.114 |
| RRIRSRPPRLPRPRPRPMRTPRP | 0.654 |
| RRIRHRPPRLPRPRPRPDSHPRP | -0.0191 |
| RRIRDRPPRLPRPRPRPRTNPRP | -0.179 |
| RRIRKRPPRLPRPRPRPDMMPRP | 1.43 |
| RRIRCRPPRLPRPRPRPATHPRP | -0.0187 |
| RRIRKRPPRLPRPRPRPAGGPRP | 0.435 |
| RRIRCRPPRLPRPRPRPRKLPRP | 0.0902 |
| RRIRERPPRLPRPRPRPVKPPRP | -0.102 |
| RRIRGRPPRLPRPRPRPTSCPRP | 0.401 |
| RRIRNRPPRLPRPRPRPRFDPRP | 0.0608 |
| RRIRWRPPRLPRPRPRPHEEPRP | 0.0119 |
| RRIRWRPPRLPRPRPRPLHYPRP | -0.369 |
| RRIRERPPRLPRPRPRPADTPRP | -0.262 |
| RRIRIRPPRLPRPRPRPKPTPRP | 0.448 |
| RRIRPRPPRLPRPRPRPFYPPRP | -0.854 |
| RRIRDRPPRLPRPRPRPRNLPRP | -0.0438 |
| RRIRNRPPRLPRPRPRPIGMPRP | -0.0748 |
| RRIRWRPPRLPRPRPRPGEDPRP | 0.381 |
| RRIRNRPPRLPRPRPRPTEEPRP | -0.00968 |
| RRIRHRPPRLPRPRPRPLSCPRP | -0.287 |
| RRIRHRPPRLPRPRPRPQINPRP | -0.827 |
| RRIRLRPPRLPRPRPRPHTYPRP | -0.257 |
| RRIRDRPPRLPRPRPRPVMMPRP | -0.168 |

| Sequence | shrunken log2 fold change |
| --- | --- |
| RRIRFRPPRLPRPRPRPIDAPRP | -0.289 |
| RRIRLRPPRLPRPRPRPWRIPRP | 0.0246 |
| RRIRERPPRLPRPRPRPQVTPRP | -0.118 |
| RRIRCRPPRLPRPRPRPMWQPRP | 0.183 |
| RRIRMRPPRLPRPRPRPMKLPRP | -0.13 |
| RRIRYRPPRLPRPRPRPGKTPRP | -0.0233 |
| RRIRNRPPRLPRPRPRPDKWPRP | -0.258 |
| RRIRPRPPRLPRPRPRPKWNPRP | -0.0477 |
| RRIRPRPPRLPRPRPRPHIQPRP | -0.312 |
| RRIRSRPPRLPRPRPRPIVAPRP | 0.0103 |
| RRIRWRPPRLPRPRPRPWTCPRP | 0.0612 |
| RRIRIRPPRLPRPRPRPWWWPRP | -0.115 |
| RRIRTRPPRLPRPRPRPCGYPRP | -0.0816 |
| RRIRARPPRLPRPRPRPIVEPRP | 0.207 |
| RRIRRRPPRLPRPRPRPFHYPRP | -0.259 |
| RRIRRRPPRLPRPRPRPWVYPRP | 0.0234 |
| RRIRERPPRLPRPRPRPHRAPRP | -0.0349 |
| RRIRYRPPRLPRPRPRPGEYPRP | -0.0574 |
| RRIRMRPPRLPRPRPRPPYYPRP | -0.243 |
| RRIRTRPPRLPRPRPRPTCNPRP | -0.533 |
| RRIRYRPPRLPRPRPRPGPQPRP | -0.151 |
| RRIRIRPPRLPRPRPRPRDEPRP | 0.27 |
| RRIRSRPPRLPRPRPRPYQIPRP | -0.106 |
| RRIRARPPRLPRPRPRPDQYPRP | 0.151 |
| RRIRTRPPRLPRPRPRPTKTPRP | 0.0558 |

— the supplement of paper PMC9112550, “Optimization of the antimicrobial peptide Bac7 by deep mutational scanning” (BMC Biology, 2022)
